Consider five molecules from patent US20240174746A1.

The target of assay [1] is mouse TMEM106B (mouse) (UniProt Q80X71). The experiment in a line: flow cytometry, HEK293 cells transiently transfected with murine TMEM106B.
The target of assay [2] is cynomolgus (cyno) TMEM106B (cynomolgus). Put plainly: flow cytometry, HEK293 cells transiently transfected with cyno TMEM106B. On the technique in general: In flow cytometry, cells or beads pass a laser one at a time.
Assay [3] has as its target human TMEM106B (human) (UniProt Q9NUM4). Put plainly: flow cytometry, HEK293 cells transiently transfected with human TMEM106B.

B1: TM-90 (antibody, V domains shown)
VH: QVHLQQSGPELVKPGASVKLSCKASGYPFTSYDINWVKQRPGQGLEWIGWIYPRDGNAKYNEKFKGKATLTVDTSSSTAYMELHSLTSENSAVYFCARVSDYHGGYGMDYWGQGTSVTVSS
VL: DVLMTQTPLSLPVSLGDQASISCRSSQSFVHGNGNTYLEWYLQKPGQSPKLLIYKVSHRFSGVPDRFSGSGSGTDFTLKITRVEAEDLGVYYCFQNSHVPHTFGGGTKLEIK
Turning to B1, the fold-change in binding over parental HEK293 cells in assay [1] amounted to 1.97 fold.

B2: TM-77 (antibody, V domains shown)
VH: QIQLQQSGAELVRPGASVKLSCKASGYTFTDYEMHWVKQTPVHGLEWIGVIDPETGGTAYNQMFKGKATLTADKSSSTAYMDLRSLTSEDSAVYYCVKYGIEGYWGQGTTLTVSS
VL: DVVMTQIPLTLSVTLGQPASISCKSSQSLFHSNGKTYLNWLLQRPGQSPKLLIYMVSKLESGVPDRFSGSGSGTDFTLKISRVEAEDLGVYYCLQVTHFPLTFGAGTKLELK
Turning to B2, the fold-change in binding over parental HEK293 cells in assay [1] turned out to be 1.86 fold.

B3: TM-72 (antibody, V domains shown)
VH: QVQLQQPGAELVKPGTSVKLSCKASGSTFTNYWMHWVMQRPGQGLEWIGNIDPSDSDTHYNQKFKDRAKLTVDKSSSTAYMQLSGLTSEDSAVYYCARSRGGYYDYGEAMDYWGQGTSVTVSS
VL: DIVMTQAAPSVPVTPGESVSISCRSSKSLLHTNGNTYLFWFIQRPGQSPHLLIYRKSNLASGVPDRFSGSGSGTAFTLRISRVEAEDVGVYYCMQHLEYPFTFGSGTKLEIK
In the case of B3, in assay [2], the fold-change in binding over parental HEK293 cells was found to be 1.78 fold.

B4: TM-79 (antibody, V domains shown)
VH: EVQLQQSGPELVKPGASVKMSCKASGYTFTNYVMHWLKQKPGQGLEWIAHITPHNDGTKYNEKFKGKATLTSDRSSSTAYMELNSLTSEDSAIYYCARSGQFGRGDYFHYWGQGTTVTVSS
VL: DIVLTQSPASLAVSLGQRATISCRASKSVSTSGSIYIHWYQQKPGQPPKLLIYLTSNLESGVPARFSGSGSGTDFTLNIHPVEEEDAATYYCQHSGELPWTFGGGARLEIK
In the case of B4, the fold-change in binding over parental HEK293 cells in assay [1] was found to be 1.86 fold.

B5: TM-82 (antibody, V domains shown)
VH: QVQLQQSGAELVRPGTSVRVSCKASGYAFTNYLIEWIKQRPGQGLEWIGVINPGSGITDYSEKFKGKARLTADKSSSTAYMQLSSLTSDDSAVYFCTRSPFITTVVADYWGQGTTVTVSS
VL: DVVVTQTPLSLPVSFGDQVSISCRSSQSLANTYGNTYLSWYLHTPGQSPQLLIFGISNRFSGVPDRFSGSGSGTDFTLKISTIKPEDLGVYYCLQGTHPPRTFGGGTKLEMK
Regarding B5, the fold-change in binding over parental HEK293 cells in assay [3] turned out to be 1.99 fold.
